Data: PMC6735392, “The miR-26a/AP-2α/Nanog signaling axis mediates stem cell self-renewal and temozolomide resistance in glioma”

B1: Nanog(-568/-544) WT (dsDNA)
DNA 1: GATCCGCCTGCCACGGCCTCCCAAT
DNA 2: ATTGGGAGGCCGTGGCAGGCGGATC
B2: Nanog(-527/-503) WT (dsDNA)
DNA 1: GGTGGGCCACCGCGCCCGGCCTTTT
DNA 2: AAAAGGCCGGGCGCGGTGGCCCACC
B3: Nanog(-568/-544) mut (dsDNA)
DNA 1: GATCCGCCTATTACGTCATCCCAAT
DNA 2: ATTGGGATGACGTAATAGGCGGATC
B4: Nanog(-527/-503) mut (dsDNA)
DNA 1: GGTGGGCCACCAAGCCCATACTTTT
DNA 2: AAAAGTATGGGCTTGGTGGCCCACC

Target: GST-AP-2α (UniProt P05549 1-437)
Sequence (P05549 whole entry): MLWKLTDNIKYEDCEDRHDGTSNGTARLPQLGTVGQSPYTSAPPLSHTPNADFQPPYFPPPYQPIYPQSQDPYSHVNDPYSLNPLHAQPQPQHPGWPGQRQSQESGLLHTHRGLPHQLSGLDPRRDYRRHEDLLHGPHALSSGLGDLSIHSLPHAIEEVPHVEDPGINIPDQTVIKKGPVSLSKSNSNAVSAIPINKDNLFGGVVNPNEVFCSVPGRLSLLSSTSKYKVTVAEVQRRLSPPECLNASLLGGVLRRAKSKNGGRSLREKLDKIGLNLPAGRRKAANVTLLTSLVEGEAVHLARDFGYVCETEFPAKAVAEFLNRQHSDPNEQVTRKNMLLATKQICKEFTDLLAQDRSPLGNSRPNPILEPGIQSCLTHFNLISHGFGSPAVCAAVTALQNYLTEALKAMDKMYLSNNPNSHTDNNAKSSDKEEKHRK
Assay: EMSA; EMSA/Gel-Shift Kit (Beyotime) binding buffer, 10 μL, 5 μg GST-AP-2α, 2 pmol biotin probe, 30 min room temperature, 4% nondenaturing gel; salt and pH not stated
Conditions: protein: recombinant, tags: GST, blunt

Binder | binding result (label: 3' biotin (hot probe)) | binding result (label: 3' biotin)
B1 | binds | 
B2 | binds | 
B3 |  | no binding
B4 |  | no binding
